Experimental data as given in US20230357340A1 (APRILBIO, published 2023).

What was measured:
human serum albumin = target: T1, human serum albumin (human, UniProt P02768 25-609); test: SPR, BiaCore T200, APB-R3 amine-coupled on CM5 chip, human serum albumin as analyte, 1:1 fit
T1 construct: also called HSA; Human serum albumin (Sigma)
Protocol: (§1) Surface Plasmon Resonance (SPR) assay was performed by Wide River Institute of Immunology (Seoul National University, Seoul, KR) to measure the binding affinity, equilibrium dissociation constant (KD), of APB-R3 to recombinant human IL-18 (Prospec) and human serum albumin (Sigma) by using BiaCore™ T200 (GE Healthcare), Sensor Chip CM5 (Cytiva), and HBS-EP+(Cytiva), as a running buffer. APB-R3 was immobilized by using Amine Coupling Kit (GE Healthcare) in pH 4.5 and the analyte of human IL-18 was diluted and prepared at 62.5 nM, 31.3 nM, 15.6 nM, 7.8 nM, 3.9 nM, and 1.95 nM, and the analyte of human serum albumin was diluted and prepared at 1,250 nM, 625 nM, 313 nM, 156 nM, 78 nM, 39 nM, and 19.5 nM. Kinetics between APB-R3 and human IL-18 or human serum albumin was analyzed by 1:1 binding fitting.

recombinant human IL-18 [1] = target: T2, recombinant human IL-18 (human, UniProt Q14116 37-193); test: SPR KD of this filing compared with a literature BIAcore value (Kim et al. 2000)
T2 construct: also called recombinant human IL-18 protein
T2 sequence (looked up): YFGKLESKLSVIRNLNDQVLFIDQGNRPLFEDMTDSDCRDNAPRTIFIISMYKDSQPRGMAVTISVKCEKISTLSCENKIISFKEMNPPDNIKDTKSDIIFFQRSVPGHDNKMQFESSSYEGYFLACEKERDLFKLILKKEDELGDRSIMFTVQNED
Protocol: as §1

[2] = target: T3, recombinant mouse IL-18 protein (mouse, UniProt P70380 36-192); test: cell-based or functional assay
T3 sequence (looked up): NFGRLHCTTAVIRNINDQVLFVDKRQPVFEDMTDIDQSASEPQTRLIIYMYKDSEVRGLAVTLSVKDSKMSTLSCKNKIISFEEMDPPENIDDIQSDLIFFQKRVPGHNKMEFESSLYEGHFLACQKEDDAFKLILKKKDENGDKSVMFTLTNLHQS

recombinant human IL-18 [3] = target: T2, recombinant human IL-18; test: cell-based or functional assay
recombinant human IL-18 [4] = target: T2, recombinant human IL-18; test: SPR, BiaCore T200, APB-R3 amine-coupled on CM5 chip, human IL-18 as analyte, 1:1 fit
Protocol: as §1

T1 sequence (P02768 25-609 limits assumed): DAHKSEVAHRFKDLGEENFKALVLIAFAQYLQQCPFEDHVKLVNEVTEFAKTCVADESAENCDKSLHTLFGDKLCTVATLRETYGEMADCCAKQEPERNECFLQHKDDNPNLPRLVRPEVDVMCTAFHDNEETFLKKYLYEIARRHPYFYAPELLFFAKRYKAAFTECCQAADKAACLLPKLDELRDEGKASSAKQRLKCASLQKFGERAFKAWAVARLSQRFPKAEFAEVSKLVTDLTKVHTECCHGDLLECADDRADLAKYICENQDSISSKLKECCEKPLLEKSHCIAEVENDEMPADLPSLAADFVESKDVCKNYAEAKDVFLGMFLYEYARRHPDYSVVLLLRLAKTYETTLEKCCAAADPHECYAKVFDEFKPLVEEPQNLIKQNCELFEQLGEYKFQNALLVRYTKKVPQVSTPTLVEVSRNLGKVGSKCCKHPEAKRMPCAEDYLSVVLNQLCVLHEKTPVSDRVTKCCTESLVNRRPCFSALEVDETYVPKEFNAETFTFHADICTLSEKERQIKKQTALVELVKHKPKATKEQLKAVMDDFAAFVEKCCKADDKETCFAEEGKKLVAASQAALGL

B1: APB-R3 (recombinant fusion protein of anti-serum albumin Fab SL335 and human IL-18BP; heavy chain SL335H-peptide linker-IL-18BP, light chain SL335L) (other)
heavy: QVQLVQSGGGPVKPGGSLRLSCAASGFMFRAYSMNWVRQAPGKGLEWVSSISSSGRYIHYADSVKGRFTISRDNAKNSLYLQMNSLRAEDTAVYYCARETVMAGKALDYWGQGTLVTVSSASTKGPSVFPLAPSSKSTSEGTAALGCLVKDYFPEPVTVSWNSGALTSGVHTFPAVLQSSGLYSLSSVVTVPSSSLGTQTYICNVNHKPSNTKVDKKVEPKSSGSAPAPGSTPVSQTTTAATASVRSTKDPCPSQPPVFPAAKQCPALEVTWPEVEVPLNGTLSLSCVACSRFPNFSILYWLGNGSFIEHLPGRLWEGSTSRERGSTGTQLCKALVLEQLTPALHSTNFSCVLVDPEQVVQRHVVLAQLWAGLRATLPPTQEALPSSHSSPQQQG
light: DIVLTQSPGTLSLSPGETATLSCRASQSVGSNLAWYQQKPGQAPRLLIYGASTGATGVPARFSGSRSGTDFTLTITSLQPEDFATYYCQQYYSFLAKTFGQGTQLEIKRTVAAPSVFIFPPSDEQLKSGTASVVCLLNNFYPREAKVQWKVDNALQSGNSQESVTEQDSKDSTYSLSNTLTLSKADYEKHKVYACEVTHQGLSSPVTKSFNRGES
notes: The IL-18BP part is glycosylated; also called APB-R3 protein
B1 gave a Kd (human serum albumin) of 16800 pM, a koff (human serum albumin) of 0.00157 s⁻¹ and a kon (human serum albumin) of 93800 M⁻¹ s⁻¹. The “fold higher binding affinity than human IL-18BPa (literature KD 399 pM)” value (recombinant human IL-18 [1]) was about 6 fold, the “IC50 (read off the curve); mouse IL-18-induced IFN-γ secretion by mouse CD4+ T cells” value [2] was about 400 pM and the “IC50 of inhibition of IL-18-induced IFN-γ production in KG-1 cells” value (recombinant human IL-18 [3]) was 41.9 pM. The Kd (recombinant human IL-18 [4]) was 60.9 pM, the koff (recombinant human IL-18 [4]) was 2.48e-05 s⁻¹ and the kon (recombinant human IL-18 [4]) was 406000 M⁻¹ s⁻¹.
